Test results as given in article PMC2958111.

Target: VEGF receptor 2 (UniProt P35968)
Assay: ELISA; VEGFR1 or VEGFR2 (200 ng/well) covalently attached with ethyl-carbodiimide to an amino-acid-coated 96-well plate; VEGF-A (200 ng/ml) applied alone or mixed with heparin, HS or porcine ocular fluid, 4°C overnight; washed with ice-cold PBS; bound VEGF-A measured with components of a human VEGF ELISA kit; values relative to controls (%)

UniProt P35968, sequence (P35968 20-764): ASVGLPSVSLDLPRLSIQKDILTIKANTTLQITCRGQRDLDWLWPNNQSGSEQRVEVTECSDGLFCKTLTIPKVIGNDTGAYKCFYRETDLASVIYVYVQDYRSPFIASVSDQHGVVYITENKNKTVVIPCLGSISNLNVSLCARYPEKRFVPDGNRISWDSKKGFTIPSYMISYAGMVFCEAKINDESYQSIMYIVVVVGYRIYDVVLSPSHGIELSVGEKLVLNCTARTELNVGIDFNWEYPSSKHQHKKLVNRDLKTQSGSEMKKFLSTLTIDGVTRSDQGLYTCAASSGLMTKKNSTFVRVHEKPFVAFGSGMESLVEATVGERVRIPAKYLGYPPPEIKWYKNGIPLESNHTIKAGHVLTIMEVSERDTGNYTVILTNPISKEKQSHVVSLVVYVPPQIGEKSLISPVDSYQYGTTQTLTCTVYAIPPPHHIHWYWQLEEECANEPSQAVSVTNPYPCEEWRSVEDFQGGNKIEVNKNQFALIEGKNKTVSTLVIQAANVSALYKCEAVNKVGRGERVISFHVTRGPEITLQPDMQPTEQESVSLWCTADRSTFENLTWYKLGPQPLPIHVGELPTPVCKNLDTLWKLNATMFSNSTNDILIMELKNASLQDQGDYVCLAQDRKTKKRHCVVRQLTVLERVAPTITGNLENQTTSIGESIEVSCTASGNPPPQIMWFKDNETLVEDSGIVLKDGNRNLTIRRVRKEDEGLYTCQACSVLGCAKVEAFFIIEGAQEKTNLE

Row | percent reduction of binding with 1,000 µg/ml soluble heparin | percent inhibition of binding by 1,000 µg/ml of HS from bovine kidney | percent inhibition of binding by porcine ocular fluid (63.2 µg/ml of HS) | Substance
1 | 9.4% |  |  | vascular endothelial growth factor-A, VEGF121 isoform (ligand)
2 | 59.8% | 88.1% | 85.7% | vascular endothelial growth factor-A, VEGF165 isoform (ligand)
